{"source": "patent US20140199706A1", "key": {"yeast proteasome (26S) [1]": {"system": "yeast proteasome (26S)"}, "[2]": {"biological_target": "yeast proteasome (26S) (S. cerevisiae (yeast))", "test": "cell-based or functional assay"}, "[3]": {"biological_target": "proteasome regulatory particle (RP) purified from a ubp6Δ strain"}, "yeast proteasome (26S) [4]": {"biological_target": "yeast proteasome (26S)", "remark": "listed apart in the source"}}, "note": "Where two headings read alike, the source gives them in different places.", "data": [{"molecule": "Ubp6-ublΔ", "values": [{"measurement": "cyclin B degradation assay", "setting": "yeast proteasome (26S) [1]", "value": "Deletion of the Ubl domain rendered Ubp6 non-inhibitory in the cyclin B degradation assay (FIG. 4B)"}]}, {"molecule": "Ubp6 (protein) MSGETFEFNIRHSGKVYPITLSTDATSADLKSKAEELTQVPSARQKYMVKGGLSGEESIKIYPLIKPGSTVMLLGTPDANLISKPAKKNNFIEDLAPEQQVQQFAQLPVGFKNMGNTCYLNATLQALYRVNDLRDMILNYNPSQGVSNSGAQDEEIHKQIVIEMKRCFENLQNKSFKSVLPIVLLNTLRKCYPQFAERDSQGGFYKQQDAEELFTQLFHSMSIVFGDKFSEDFRIQFKTTIKDTANDNDITVKENESDSKLQCHISGTTNFMRNGLLEGLNEKIEKRSDLTGANSIYSVEKKISRLPKFLTVQYVRFFWKRSTNKKSKILRKVVFPFQLDVADMLTPEYAAEKVKVRDELRKVEKEKNEKEREIKRRKFDPSSSENVMTPREQYETQVALNESEKDQWLEEYKKHFPPNLEKGENPSCVYNLIGVITHQGANSESGHYQAFIRDELDENKWYKFNDDKVSVVEKEKIESLAGGGESDSALILMYKGFGL", "values": [{"measurement": "inhibition of degradation of ub-cyclin B (quantitative mass spectrometry, 20-minute incubation)", "setting": "[2]", "value": 70, "unit": "%"}, {"measurement": "ubiquitin chain shortening of ub-cyclin B conjugates", "setting": "[3]", "value": "addition of purified Ubp6 to RP resulted in chain shortening, although to a lesser extent than with 26S proteasomes (FIG. 6A)"}, {"measurement": "cyclin B degradation by ubp6Δ proteasomes after add-back of recombinant Ubp6", "setting": "yeast proteasome (26S) [4]", "value": "a marked inhibition of cyclin B degradation (FIG. 1F) was observed"}, {"measurement": "deubiquitination of cyclin B", "setting": "yeast proteasome (26S) [4]", "value": "when Ubp6 is incubated in the presence of cyclin B, but without proteasomes, no deubiquitination of cyclin B is observed (FIG. 4D)"}]}, {"molecule": "Ubp6-C118A (protein) MSGETFEFNIRHSGKVYPITLSTDATSADLKSKAEELTQVPSARQKYMVKGGLSGEESIKIYPLIKPGSTVMLLGTPDANLISKPAKKNNFIEDLAPEQQVQQFAQLPVGFKNMGNTAYLNATLQALYRVNDLRDMILNYNPSQGVSNSGAQDEEIHKQIVIEMKRCFENLQNKSFKSVLPIVLLNTLRKCYPQFAERDSQGGFYKQQDAEELFTQLFHSMSIVFGDKFSEDFRIQFKTTIKDTANDNDITVKENESDSKLQCHISGTTNFMRNGLLEGLNEKIEKRSDLTGANSIYSVEKKISRLPKFLTVQYVRFFWKRSTNKKSKILRKVVFPFQLDVADMLTPEYAAEKVKVRDELRKVEKEKNEKEREIKRRKFDPSSSENVMTPREQYETQVALNESEKDQWLEEYKKHFPPNLEKGENPSCVYNLIGVITHQGANSESGHYQAFIRDELDENKWYKFNDDKVSVVEKEKIESLAGGGESDSALILMYKGFGL", "values": [{"measurement": "inhibition of degradation of ub-cyclin B (quantitative mass spectrometry, 20-minute incubation)", "setting": "[2]", "value": 70, "unit": "%"}, {"measurement": "cyclin B degradation assay", "setting": "yeast proteasome (26S) [4]", "value": "a catalytically inactive point mutant of Ubp6 (Ubp6-C118A) proved competent for inhibition (FIG. 4B)"}]}]}
